We go through two molecules from patent publication CN116444667A (SHANGHAI IASO BIOTECH CO LTD, dated 2023).

For assay [1], the target named is T1, GDF15 hFc tag, KACTUS, GDF-HM215 (UniProt Q99988 197-308).
T1 construct: also called GDF15蛋白; not shown: hFc tag
T1 sequence (looked up): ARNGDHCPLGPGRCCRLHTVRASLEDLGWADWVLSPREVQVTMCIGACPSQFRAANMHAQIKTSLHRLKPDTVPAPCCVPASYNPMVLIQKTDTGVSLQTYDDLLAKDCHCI
The assay is described as follows: competition ELISA: GDF15 hFc coated, antibody titrated against GFRAL His tag (competitor), anti-His HRP.

In assay [2] the target is T2, Biotinylated CD39 Protein, hFc Tag, KACTUS, CD9-HM239B (UniProt P49961 38-478, biotinylated).
T2 construct: Control antigen; also called CD39-bio-hFc; 负淘选抗原; not shown: hFc tag
T2 sequence (looked up): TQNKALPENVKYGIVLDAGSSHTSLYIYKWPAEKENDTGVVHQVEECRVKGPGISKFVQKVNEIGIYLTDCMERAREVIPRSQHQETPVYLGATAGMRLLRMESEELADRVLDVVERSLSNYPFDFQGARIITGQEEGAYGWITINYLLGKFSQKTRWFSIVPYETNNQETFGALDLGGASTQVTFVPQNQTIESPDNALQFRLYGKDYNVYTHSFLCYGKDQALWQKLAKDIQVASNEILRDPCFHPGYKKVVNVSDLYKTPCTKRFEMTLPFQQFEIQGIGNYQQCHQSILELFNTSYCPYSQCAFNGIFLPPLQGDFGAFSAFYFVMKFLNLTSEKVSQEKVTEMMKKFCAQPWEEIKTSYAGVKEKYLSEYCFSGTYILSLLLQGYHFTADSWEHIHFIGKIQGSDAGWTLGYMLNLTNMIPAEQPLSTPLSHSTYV
The assay can be described thus: phage ELISA.

Assay [3] concerns the target T3, Human Latent GDF-2/BMP-9 Protein, His tag, Acro, GD2-H52H3 (human, UniProt Q9UK05 23-429).
T3 construct: Bought protein, latent form; not shown: His tag
T3 sequence (looked up): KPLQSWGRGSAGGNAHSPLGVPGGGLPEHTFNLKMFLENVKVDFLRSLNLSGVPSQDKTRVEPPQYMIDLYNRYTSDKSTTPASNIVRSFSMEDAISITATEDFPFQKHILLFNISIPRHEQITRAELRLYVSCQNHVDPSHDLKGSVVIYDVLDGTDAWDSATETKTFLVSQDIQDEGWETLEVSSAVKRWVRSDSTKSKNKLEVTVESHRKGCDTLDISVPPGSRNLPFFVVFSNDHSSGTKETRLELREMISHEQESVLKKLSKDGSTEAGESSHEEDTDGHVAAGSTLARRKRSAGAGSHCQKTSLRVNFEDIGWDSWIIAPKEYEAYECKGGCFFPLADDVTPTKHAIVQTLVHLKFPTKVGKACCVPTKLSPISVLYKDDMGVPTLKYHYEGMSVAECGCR
The assay can be described thus: phage ELISA. In general terms: In an ELISA, binding on a coated surface is turned into a signal by an enzyme label.

Assay [4] concerns the target T4, Streptavidin (SA蛋白), Pierce, 21125 (UniProt P22629 37-163, limits assumed).
T4 construct: Control antigen in the specificity ELISA; also called Strepavidin
The assay is described as follows: phage ELISA.

In assay [5] the target is T5, Biotinylated Human GDF15 Protein (Primary Amine Labeling), KACTUS, GDF-HM215B (human, UniProt Q99988 197-308, biotinylated (primary amine labeling)).
T5 construct: Bought protein; also called human GDF15-bio-hFc; humanGDF15-bio-hFc; not shown: hFc tag
T5 sequence (looked up): T1 sequence (looked up)
The assay can be described thus: phage ELISA.

In general, EC50 refers to the concentration giving half of the maximal effect. Higher therefore signals a need for much substance.

T4 sequence (P22629 37-163 limits assumed): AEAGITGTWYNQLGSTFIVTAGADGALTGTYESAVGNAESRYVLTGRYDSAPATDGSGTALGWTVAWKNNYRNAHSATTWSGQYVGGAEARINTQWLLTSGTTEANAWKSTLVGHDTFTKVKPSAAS

B1: Clone 68 抗GDF15 IgG (human IgG4) (Fc fusion)
chain: QVQLVQSGAEVKKPGASVKVSCKASGYTFTNYGINWVRQAPGQGLEWMGWISAYNGYTDYAQKLQGRVSMTTDTSTSTVYMELRSLRSDDTAVYYCARDDAINGGDYWGQGTLVTVSSTSGGGGSGGGGSGGGGSELSYVLTQPPSASGTPGQRVTISCSGSSSNIGINTVNWYQQLPGTAPKLLIYINNQRPSGVPDRFSGSKSGTSASLAISGLQSEDEADYYCAAWDDSLNAYVFGSGTKVTVL
notes: also called GDF15 mAb; not shown: human IgG4 Fc
In the case of B1, the concentration for a half-maximal effect (EC50) in assay [1] was determined as 1.4 nM.

B2: Clone 68 (噬菌体单克隆) (other)
VH: QVQLVQSGAEVKKPGASVKVSCKASGYTFTNYGINWVRQAPGQGLEWMGWISAYNGYTDYAQKLQGRVSMTTDTSTSTVYMELRSLRSDDTAVYYCARDDAINGGDYWGQGTLVTVSS
VL: not shown
Take B2: the binding result in assay [2] was “no binding”; in assay [3], “no binding”; in assay [4] it was “no binding”; in assay [5], “binds”.
